# Source: IntAct's records for PubMed 20059542
# B1: 26S proteasome non-ATPase regulatory subunit 4 (Homo sapiens), P55036 (parent)
# chain: MVLESTMVCVDNSEYMRNGDFLPTRLQAQQDAVNIVCHSKTRSNPENNVGLITLANDCEVLTTLTPDTGRILSKLHTVQPKGKITFCTGIRVAHLALKHRQGKNHKMRIIAFVGSPVEDNEKDLVKLAKRLKKEKVNVDIINFGEEEVNTEKLTAFVNTLNGKDGTGSHLVTVPPGPSLADALISSPILAGEGGAMLGLGASDFEFGVDPSADPELALALRVSMEEQRQRQEEEARRAAAASAAEAGIATTGTEDSDDALLKMTISQQEFGRTGLPDLSSMTEEEQIAYAMQMSLQGAEFGQAESADIDASSAMDTSEPAKEEDDYDVMQDPEFLQSVLENLPGVDPNNEAIRNAMGSLASQATKDGKKDKKEEDKK
# partner: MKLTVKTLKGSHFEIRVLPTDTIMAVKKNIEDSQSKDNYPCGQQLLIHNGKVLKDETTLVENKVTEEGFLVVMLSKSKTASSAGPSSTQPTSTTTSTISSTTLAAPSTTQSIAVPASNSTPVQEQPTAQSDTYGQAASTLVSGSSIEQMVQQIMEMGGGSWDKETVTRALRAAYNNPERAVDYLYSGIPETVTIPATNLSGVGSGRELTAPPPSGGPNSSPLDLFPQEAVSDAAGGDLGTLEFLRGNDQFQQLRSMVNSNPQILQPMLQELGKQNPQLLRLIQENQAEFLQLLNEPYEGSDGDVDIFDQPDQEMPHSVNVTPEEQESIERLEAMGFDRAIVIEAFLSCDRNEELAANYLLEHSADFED
# B2: 26S proteasome non-ATPase regulatory subunit 4 homolog (Arabidopsis thaliana (Mouse-ear cress)), P55034 (parent)
# chain: MVLEATMICIDNSEWMRNGDYSPSRLQAQTEAVNLLCGAKTQSNPENTVGILTMAGKGVRVLTTPTSDLGKILACMHGLDVGGEINLTAAIQIAQLALKHRQNKNQRQRIIVFAGSPIKYEKKALEIVGKRLKKNSVSLDIVNFGEDDDEEKPQKLEALLTAVNNNDGSHIVHVPSGANALSDVLLSTPVFTGDEGASGYVSAAAAAAAAGGDFDFGVDPNIDPELALALRVSMEEERARQEAAAKKAADEAGQKDKDGDTASASQETVARTTDKNAEPMDEDSALLDQAIAMSVGDVNMSEAADEDQDLALALQMSMSGEESSEATGAGNNLLGNQAFISSVLSSLPGVDPNDPAVKELLASLPDESKRTEEEESSSKKGEDEKK
# partner: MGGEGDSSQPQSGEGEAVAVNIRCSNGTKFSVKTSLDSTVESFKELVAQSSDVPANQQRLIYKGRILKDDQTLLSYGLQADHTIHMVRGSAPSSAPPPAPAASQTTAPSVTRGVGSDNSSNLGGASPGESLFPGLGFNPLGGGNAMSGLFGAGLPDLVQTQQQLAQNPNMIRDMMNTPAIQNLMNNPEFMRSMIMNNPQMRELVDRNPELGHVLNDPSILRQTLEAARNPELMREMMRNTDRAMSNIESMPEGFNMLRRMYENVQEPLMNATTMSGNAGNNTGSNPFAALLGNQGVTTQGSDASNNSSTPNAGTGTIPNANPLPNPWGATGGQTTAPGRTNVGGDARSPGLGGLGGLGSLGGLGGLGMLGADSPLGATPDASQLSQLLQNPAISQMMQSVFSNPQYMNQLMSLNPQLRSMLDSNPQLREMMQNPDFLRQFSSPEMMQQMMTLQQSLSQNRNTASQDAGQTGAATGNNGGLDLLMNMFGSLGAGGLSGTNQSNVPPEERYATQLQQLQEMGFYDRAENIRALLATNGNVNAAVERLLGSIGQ
# B3: 26S proteasome regulatory subunit RPN10 (Saccharomyces cerevisiae), P38886 (parent)
# chain: MVLEATVLVIDNSEYSRNGDFPRTRFEAQIDSVEFIFQAKRNSNPENTVGLISGAGANPRVLSTFTAEFGKILAGLHDTQIEGKLHMATALQIAQLTLKHRQNKVQHQRIVAFVCSPISDSRDELIRLAKTLKKNNVAVDIINFGEIEQNTELLDEFIAAVNNPQEETSHLLTVTPGPRLLYENIASSPIILEEGSSGMGAFGGSGGDSDANGTFMDFGVDPSMDPELAMALRLSMEEEQQRQERLRQQQQQQDQPEQSEQPEQHQDK
# partner: B1 partner
# B4: 26S proteasome regulatory subunit RPN10 (Saccharomyces cerevisiae), P38886 (parent)
# chain: B3 chain
# partner: B2 partner
# B5: 26S proteasome non-ATPase regulatory subunit 4 (Homo sapiens), P55036 (parent)
# chain: B1 chain
# partner: B2 partner
# Variants of: B1
# Settings: with rd23a_arath RAD23A
row,Variant,effect of a mutation on the interaction
1,MVLESTMVCVDNSEYMRNGDFLPTRLQAQQDAVNIVCHSKTRSNPENNVGLITLANDCEVLTTLTPDTGRILSKLHTVQPKGKITFCTGIRVAHLALKHRQGKNHKMRIIAFVGSPVEDNEKDLVKLAKRLKKEKVNVDIINFGEEEVNTEKLTAFVNTLNGKDGTGSHLVTVPPGPSLADALISSPILAGEGGAMLGLGASDFEFGVDPSADPELALALRVSMEEQRQRQEEEARRAAAASAAEAGIATTGTEDSDDALLKMTISQQEFGRTGLPDLSSMTEEEQNNNNNQMSLQGAEFGQAESADIDASSAMDTSEPAKEEDDYDVMQDPEFLQSVLENLPGVDPNNEAIRNAMGSLASQATKDGKKDKKEEDKK [I287N;A288N;Y289N;A290N;M291N],disrupting interaction strength
2,MVLESTMVCVDNSEYMRNGDFLPTRLQAQQDAVNIVCHSKTRSNPENNVGLITLANDCEVLTTLTPDTGRILSKLHTVQPKGKITFCTGIRVAHLALKHRQGKNHKMRIIAFVGSPVEDNEKDLVKLAKRLKKEKVNVDIINFGEEEVNTEKLTAFVNTLNGKDGTGSHLVTVPPGPSLADALISSPILAGEGGAMLGLGASDFEFGVDPSADPENNNNNRVSMEEQRQRQEEEARRAAAASAAEAGIATTGTEDSDDALLKMTISQQEFGRTGLPDLSSMTEEEQNNNNNQMSLQGAEFGQAESADIDASSAMDTSEPAKEEDDYDVMQDPEFLQSVLENLPGVDPNNEAIRNAMGSLASQATKDGKKDKKEEDKK [L216N;A217N;L218N;A219N;L220N;I287N;A288N;Y289N;A290N;M291N],disrupting interaction strength
3,MVLESTMVCVDNSEYMRNGDFLPTRLQAQQDAVNIVCHSKTRSNPENNVGLITLANDCEVLTTLTPDTGRILSKLHTVQPKGKITFCTGIRVAHLALKHRQGKNHKMRIIAFVGSPVEDNEKDLVKLAKRLKKEKVNVDIINFGEEEVNTEKLTAFVNTLNGKDGTGSHLVTVPPGPSLADALISSPILAGEGGAMLGLGASDFEFGVDPSADPENNNNNRVSMEEQRQRQEEEARRAAAASAAEAGIATTGTEDSDDALLKMTISQQEFGRTGLPDLSSMTEEEQIAYAMQMSLQGAEFGQAESADIDASSAMDTSEPAKEEDDYDVMQDPEFLQSVLENLPGVDPNNEAIRNAMGSLASQATKDGKKDKKEEDKK [L216N;A217N;L218N;A219N;L220N],with no effect

# Variants of: B2
# Settings: with dsk2b_arath DSK2B
row,Variant,effect of a mutation on the interaction
1,MVLEATMICIDNSEWMRNGDYSPSRLQAQTEAVNLLCGAKTQSNPENTVGILTMAGKGVRVLTTPTSDLGKILACMHGLDVGGEINLTAAIQIAQLALKHRQNKNQRQRIIVFAGSPIKYEKKALEIVGKRLKKNSVSLDIVNFGEDDDEEKPQKLEALLTAVNNNDGSHIVHVPSGANALSDVLLSTPVFTGDEGASGYVSAAAAAAAAGGDFDFGVDPNIDPELALALRVSMEEERARQEAAAKKAADEAGQKDKDGDTASASQETVARTTDKNAEPMDEDSANNDNDIAMSVGDVNMSEAADEDQDNNNDNQMSMSGEESSEATGAGNNLLGNQAFISSVLSSLPGVDPNDPAVKELLASLPDESKRTEEEESSSKKGEDEKK [L286N;L287N;Q289N;A290D;L310N;A311N;L312N;A313D;L314N],with no effect
2,MVLEATMICIDNSEWMRNGDYSPSRLQAQTEAVNLLCGAKTQSNPENTVGILTMAGKGVRVLTTPTSDLGKILACMHGLDVGGEINLTAAIQIAQLALKHRQNKNQRQRIIVFAGSPIKYEKKALEIVGKRLKKNSVSLDIVNFGEDDDEEKPQKLEALLTAVNNNDGSHIVHVPSGANALSDVLLSTPVFTGDEGASGYVSAAAAAAAAGGDFDFGVDPNIDPELALALRVSMEEERARQEAAAKKAADEAGQKDKDGDTASASQETVARTTDKNAEPMDEDSALLDQAIAMSVGDVNMSEAADEDQDNNNDNQMSMSGEESSEATGAGNNLLGNQAFISSVLSSLPGVDPNDPAVKELLASLPDESKRTEEEESSSKKGEDEKK [L310N;A311N;L312N;A313D;L314N],with no effect
3,MVLEATMICIDNSEWMRNGDYSPSRLQAQTEAVNLLCGAKTQSNPENTVGILTMAGKGVRVLTTPTSDLGKILACMHGLDVGGEINLTAAIQIAQLALKHRQNKNQRQRIIVFAGSPIKYEKKALEIVGKRLKKNSVSLDIVNFGEDDDEEKPQKLEALLTAVNNNDGSHIVHVPSGANALSDVLLSTPVFTGDEGASGYVSAAAAAAAAGGDFDFGVDPNIDPELALALRVSMEEERARQEAAAKKAADEAGQKDKDGDTASASQETVARTTDKNAEPMDEDSANNDNDIAMSVGDVNMSEAADEDQDLALALQMSMSGEESSEATGAGNNLLGNQAFISSVLSSLPGVDPNDPAVKELLASLPDESKRTEEEESSSKKGEDEKK [L286N;L287N;Q289N;A290D],with no effect
4,MVLEATMICIDNSEWMRNGDYSPSRLQAQTEAVNLLCGAKTQSNPENTVGILTMAGKGVRVLTTPTSDLGKILACMHGLDVGGEINLTAAIQIAQLALKHRQNKNQRQRIIVFAGSPIKYEKKALEIVGKRLKKNSVSLDIVNFGEDDDEEKPQKLEALLTAVNNNDGSHIVHVPSGANALSDVLLSTPVFTGDEGASGYVSAAAAAAAAGGDFDFGVDPNIDPEDDDDDRVSMEEERARQEAAAKKAADEAGQKDKDGDTASASQETVARTTDKNAEPMDEDSALLDQAIAMSVGDVNMSEAADEDQDLALALQMSMSGEESSEATGAGNNLLGNQAFISSVLSSLPGVDPNDPAVKELLASLPDESKRTEEEESSSKKGEDEKK [L226D;A227D;L228D;A229D;L230D],disrupting interaction strength

# Variants of: B3
# Settings: with rd23a_arath RAD23A
row,Variant,effect of a mutation on the interaction
1,MVLEATVLVIDNSEYSRNGDFPRTRFEAQIDSVEFIFQAKRNSNPENTVGLISGAGANPRVLSTFTAEFGKILAGLHDTQIEGKLHMATALQIAQLTLKHRQNKVQHQRIVAFVCSPISDSRDELIRLAKTLKKNNVAVDIINFGEIEQNTELLDEFIAAVNNPQEETSHLLTVTPGPRLLYENIASSPIILEEGSSGMGAFGGSGGDSDANGTFMDFGVDPSMDPENNNNNRLSMEEEQQRQERLRQQQQQQDQPEQSEQPEQHQDK [L228N;A229N;M230N;A231N;L232N],disrupting interaction strength

# Variants of: B4
# Settings: with dsk2b_arath DSK2B
row,Variant,effect of a mutation on the interaction
1,MVLEATVLVIDNSEYSRNGDFPRTRFEAQIDSVEFIFQAKRNSNPENTVGLISGAGANPRVLSTFTAEFGKILAGLHDTQIEGKLHMATALQIAQLTLKHRQNKVQHQRIVAFVCSPISDSRDELIRLAKTLKKNNVAVDIINFGEIEQNTELLDEFIAAVNNPQEETSHLLTVTPGPRLLYENIASSPIILEEGSSGMGAFGGSGGDSDANGTFMDFGVDPSMDPENNNNNRLSMEEEQQRQERLRQQQQQQDQPEQSEQPEQHQDK [L228N;A229N;M230N;A231N;L232N],disrupting interaction strength

# Variants of: B5
# Settings: with dsk2b_arath DSK2B
row,Variant,effect of a mutation on the interaction
1,MVLESTMVCVDNSEYMRNGDFLPTRLQAQQDAVNIVCHSKTRSNPENNVGLITLANDCEVLTTLTPDTGRILSKLHTVQPKGKITFCTGIRVAHLALKHRQGKNHKMRIIAFVGSPVEDNEKDLVKLAKRLKKEKVNVDIINFGEEEVNTEKLTAFVNTLNGKDGTGSHLVTVPPGPSLADALISSPILAGEGGAMLGLGASDFEFGVDPSADPENNNNNRVSMEEQRQRQEEEARRAAAASAAEAGIATTGTEDSDDALLKMTISQQEFGRTGLPDLSSMTEEEQIAYAMQMSLQGAEFGQAESADIDASSAMDTSEPAKEEDDYDVMQDPEFLQSVLENLPGVDPNNEAIRNAMGSLASQATKDGKKDKKEEDKK [L216N;A217N;L218N;A219N;L220N],with no effect
2,MVLESTMVCVDNSEYMRNGDFLPTRLQAQQDAVNIVCHSKTRSNPENNVGLITLANDCEVLTTLTPDTGRILSKLHTVQPKGKITFCTGIRVAHLALKHRQGKNHKMRIIAFVGSPVEDNEKDLVKLAKRLKKEKVNVDIINFGEEEVNTEKLTAFVNTLNGKDGTGSHLVTVPPGPSLADALISSPILAGEGGAMLGLGASDFEFGVDPSADPENNNNNRVSMEEQRQRQEEEARRAAAASAAEAGIATTGTEDSDDALLKMTISQQEFGRTGLPDLSSMTEEEQNNNNNQMSLQGAEFGQAESADIDASSAMDTSEPAKEEDDYDVMQDPEFLQSVLENLPGVDPNNEAIRNAMGSLASQATKDGKKDKKEEDKK [L216N;A217N;L218N;A219N;L220N;I287N;A288N;Y289N;A290N;M291N],disrupting interaction strength
3,MVLESTMVCVDNSEYMRNGDFLPTRLQAQQDAVNIVCHSKTRSNPENNVGLITLANDCEVLTTLTPDTGRILSKLHTVQPKGKITFCTGIRVAHLALKHRQGKNHKMRIIAFVGSPVEDNEKDLVKLAKRLKKEKVNVDIINFGEEEVNTEKLTAFVNTLNGKDGTGSHLVTVPPGPSLADALISSPILAGEGGAMLGLGASDFEFGVDPSADPELALALRVSMEEQRQRQEEEARRAAAASAAEAGIATTGTEDSDDALLKMTISQQEFGRTGLPDLSSMTEEEQNNNNNQMSLQGAEFGQAESADIDASSAMDTSEPAKEEDDYDVMQDPEFLQSVLENLPGVDPNNEAIRNAMGSLASQATKDGKKDKKEEDKK [I287N;A288N;Y289N;A290N;M291N],disrupting interaction strength
